Assay results from PMC7181406.
Values joined by “and” are separate entries in the source; they are usually repeats but may differ in a detail not shown here. Identical values can stand only once. Like-named read-outs stand apart in the source and are kept apart here.

Assays:
Assay in all cases: TIRF microscopy
[1] = biological target: taxol-stabilized microtubules assembled from porcine brain tubulin (porcine) (UniProt P02550)
[2] = biological target: taxol-stabilized microtubules assembled from porcine brain tubulin (porcine) (UniProt P02550); remark: listed apart in the source
[3] = biological target: taxol-stabilized microtubules assembled from porcine brain tubulin (porcine) (UniProt P02550); remark: listed apart in the source
[4] = biological target: taxol-stabilized microtubules assembled from porcine brain tubulin (porcine) (UniProt P02550); remark: listed apart in the source
[5] = biological target: taxol-stabilized microtubules assembled from porcine brain tubulin (porcine) (UniProt P02550); remark: listed apart in the source
[6] = biological target: taxol-stabilized microtubules assembled from porcine brain tubulin (porcine) (UniProt P02550); remark: listed apart in the source
[7] = biological target: taxol-stabilized microtubules assembled from porcine brain tubulin (porcine) (UniProt P02550); remark: listed apart in the source
[8] = biological target: taxol-stabilized microtubules assembled from porcine brain tubulin (porcine) (UniProt P02550); remark: listed apart in the source
[9] = biological target: taxol-stabilized microtubules assembled from porcine brain tubulin (porcine) (UniProt P02550); remark: listed apart in the source
[10] = biological target: taxol-stabilized microtubules assembled from porcine brain tubulin (porcine) (UniProt P02550); remark: listed apart in the source
[11] = biological target: taxol-stabilized microtubules assembled from porcine brain tubulin (porcine) (UniProt P02550); remark: listed apart in the source
[12] = biological target: taxol-stabilized microtubules assembled from porcine brain tubulin (porcine) (UniProt P02550); remark: listed apart in the source
[13] = biological target: taxol-stabilized microtubules assembled from porcine brain tubulin (porcine) (UniProt P02550); remark: listed apart in the source

## KIF5B_(K-insert)-mScarlet (from UniProt P33176 1-560) (domain or fragment)
[1]
  landing rate (motors μm^−1min^−1nM^−1): 5.44
[2]
  landing rate (motors μm^−1min^−1nM^−1): 6.04
[3]
  landing rate (motors μm^−1min^−1nM^−1): 0.83

## KIF5B_(1-560)-mScarlet (from UniProt P33176 1-560) (domain or fragment)
[1]
  landing rate (motors μm^−1min^−1nM^−1): 0.11
[4]
  landing rate (motors μm^−1min^−1nM^−1): 2.72
[5]
  landing rate (motors μm^−1min^−1nM^−1): 0.58
[6]
  landing rate (motors μm^−1min^−1nM^−1): 0.01 and 0.005
[7]
  landing rate (motors μm^−1min^−1nM^−1): 0.02
[8]
  landing rate (motors μm^−1min^−1nM^−1): 0.03
[9]
  landing rate (motors μm^−1min^−1nM^−1): 0.03
[10]
  landing rate (motors μm^−1min^−1nM^−1): 0.06
[11]
  landing rate (motors μm^−1min^−1nM^−1): 0.05
[12]
  landing rate (motors μm^−1min^−1nM^−1): 0.07

## TMR-GST-dynein motor domain (SNAPf-GST-hDyn) (domain or fragment)
[1]
  fluorescence intensity on microtubules: 13200 A.U.
[13]
  fluorescence intensity on microtubules: 13700 A.U.

## p150-mScarlet (from UniProt Q14203-1 1-1278) (natural protein)
[1]
  fluorescence intensity on microtubules: 44200 A.U.
